Data taken from patent US5847088A, “Antibodies specific for platelet-activating factor acetylhydrolase” (ICOS Corporation, priority 1995, dated 1998).

Key:
zymosan A-induced edema = assay: Rat foot edema model, zymosan A-induced; format: in vivo; conditions: 2000 U IV 15 minutes before zymosan A, 2 hours
Procedure: Six to eight-week-old female Long Evans rats (Charles River, Wilmington, Mass.), weighing 180-200 grams, were used for all experiments. Prior to experimental manipulations, animals were anesthetized with a mixture of the anesthetics Ketaset (Fort Dodge Laboratories, Fort Dodge, Iowa), Rompun (Miles, Shawnee Mission, Kans.), and Ace Promazine (Aveco, Fort Dodge, Iowa) administered subcutaneously at approximately 2.5 mg Ketaset, 1.6 mg Rompun, 0.2 mg Ace Promazine per animal per dose. Edema was induced in the foot by administration of either PAF or zymosan as follows. […] Animals received 50 μl PAF (final dose of 0.96 nmoles) subcutaneously between the hind foot pads, and edema was assessed after 1 hour and again after 2 hours in some experiments. […] Animals received 50 μl of zymosan (final dose of 500 μg) subcutaneously between the hind foot pads and edema was assessed after 2 hours.
Edema was quantitated by measuring the foot volume immediately prior to administration of PAF or zymosan and at indicated time point post-challenge with PAF or zymosan. Edema is expressed as the increase in foot volume in milliliters. […]
Rats (N=4 per group) were pretreated IV with either PAF-AH (2000 U in 300 μl carrier) or carrier alone. Fifteen minutes after pretreatment, groups received either PAF or zymosan A, and foot volume was assessed after 1 and 2 hours, respectively.

PAF-induced pleurisy = PAF-induced pleurisy (Evans blue vascular leakage); format: in vivo, rat; conditions: 300 μl PAF-AH (1500 μmol/ml/hour) IV 15 minutes before 2.0 nmol PAF, 1 hour
Procedure: Fifteen minutes later the rats received an 100 μl injection of PAF (2.0 nmol) into the pleural space. One hour following PAF challenge, rats were sacrificed and the pleural fluid was collected by rinsing the cavity with 3 ml heparinized phosphate buffered saline. The degree of vascular leak was determined by the quantity of Evans blue dye in the pleural space which was quantitated by absorbance at 620 nm.

[1] = tested on: PAF-induced necrotizing enterocolitis; assay: Rat model of PAF-induced necrotizing enterocolitis (NEC); format: in vivo
Procedure: The small intestines were removed after 2 hours from the ligament of Trietz to the cecum, thoroughly washed with cold saline and examined grossly. Samples were obtained from microscopic examination from the upper, middle and lower portions of the small intestine. The tissues were fixed in buffered formalin and the sample processed for microscopic examination by staining with hematoxylin and eosin. The experiment was repeated three times.
In order to determine if the protection against NEC in rats was dose dependent, animals were treated with increasing doses of PAF-AH 15 minutes prior to PAF administration. Initially, PAF-AH, ranging from 25.5 to 25,500 units were administered into the tail vein of rats. PAF (0.4 μg in 0.2 ml of BSA-saline) was subsequently injected into the abdominal aorta 15 minutes after the administration of PAF-AH. The small intestine was removed and examined for NEC development 2 hours after PAF administration. Plasma PAF-AH activity was determined prior to the exogenous administration of the enzyme, and 15 minutes and 21/4 hours after PAF-AH administration. The results are the mean of 2-5 animals in each group.
In order to determine the length of time exogenous PAF-AH afforded protection against development of NEC, rats were injected once with a fixed amount of the enzyme via the tail vein and subsequently challenged with PAF at various time points. PAF-AH (8,500 units in 0.3 ml) or vehicle alone was administered into the tail vein of rats, and PAF (0.36 μg in 0.2 ml of BSA-saline) was injected into the abdominal aorta at the various times after the enzyme administration. The small intestines were removed 2 hours after the PAF injection for gross and histological examinations in order to evaluate for NEC development. Plasma PAF-AH activities were determined at various times after enzyme administration and two hours after PAF administration. The mean value±standard error for enzyme activity was determined for each group.
In order to determine if administration of PAF-AH was capable of reversing development of NEC induced by PAF injection, 25,500 units of enzyme was administered via injection into the vena cava two minutes following PAF administration (0.4 μg).

PAF mediated lung injury = assay: Guinea pig model of ARDS (PAF infusion, BAL protein); format: in vivo
Procedure: Based on the above observations, an ARDS model in guinea pigs was developed. A cannula is placed into the jugular vein of anaesthetized male Hartly guinea pigs (approximately 350-400 grams) and PAF diluted in a 500 μl volume of phosphate buffered saline with 0.25% bovine serum albumin as a carrier (PBS-BSA) is infused over a 15 minute period of time at a total dosage ranging from 100-400 ng/kg. At various intervals following PAF infusion, animals are sacrificed and lung tissue is collected. In guinea pigs infused with PAF, dose dependent lung damage and inflammation is clearly evident by 15 minutes and continues to be present at 60 minutes. Neutrophils and red blood cells are present in the alveolar spaces of PAF treated guinea pigs but absent in control or sham infused animals. Evidence of epithelial cell damage is also evident and reminiscent of hyaline membrane formation in human ARDS patients.
Groups of guinea pigs were pretreated with either PAF-AH (2000 units in 500 μl) or 500 μl of the PAF-AH buffer only. Fifteen minutes later these guinea pigs were infused with 400 ng/kg PAF in a 500 μl volume, infused over a 15 minute period. In addition, a sham group of guinea pigs was infused with 500 μl of PBS-BSA. […] To determine protein concentration in the BAL, samples were diluted 1:10 in saline and the OD 280 was determined.

B1: PAF-AH: Recombinant human plasma platelet-activating factor acetylhydrolase (beginning at Ile42 of SEQ ID NO:8) expressed in E. coli (protein, UniProt Q13093 22-441, looked up)
Platelet-activating factor …: FDWQYINPVAHMKSSAWVNKIQVLMAAASFGQTKIPRGNGPYSVGCTDLMFDHTNKGTFLRLYYPSQDNDRLDTLWIPNKEYFWGLSKFLGTHWLMGNILRLLFGSMTTPANWNSPLRPGEKYPLVVFSHGLGAFRTLYSAIGIDLASHGFIVAAVEHRDRSASATYYFKDQSAAEIGDKSWLYLRTLKQEEETHIRNEQVRQRAKECSQALSLILDIDHGKPVKNALDLKFDMEQLKDSIDREKIAVIGHSFGGATVIQTLSEDQRFRCGIALDAWMFPLGDEVYSRIPQPLFFINSEYFQYPANIIKMKKCYSPDKERKMITIRGSVHQNFADFTFATGKIIGHMLKLKGDIDSNVAIDLSNKASLAFLQKHLGLHKDFDQWDCLIEGDDENLIPGTNINTTNQHIMLQNSSGIEKYN
Zymosan A-induced edema
  effect on zymosan induced edema: failed to block
PAF-induced pleurisy
  reduction in inflammation (vascular leakage, Evans blue in pleural space): > 80%
[1]; 8,500 units IV once
  NEC development, PAF challenge within the first eight hours after injection: none of the rats developed NEC
  animals developing NEC, PAF challenge at 24 and 48 hours after injection: 100%
[1]; 25,500 units IV followed by PAF injection
  protection against NEC: completely protected
[1]; 25,500 units IV, no PAF
  gross findings of bowel, PAF-AH in the absence of PAF: no effect on the gross findings
[1]; 25,500 units into vena cava
  NEC development, enzyme given 15 minutes after PAF: all animals developed NEC
[1]; 25,500 units into vena cava, PAF 0.4 μg
  NEC development, enzyme given two minutes following PAF: None of the animals developed NEC
[1]; 25,500 units via tail vein 15 minutes prior to PAF into aorta
  gross findings of bowel: the bowel appeared to be normal
[1]; IV 15 minutes prior to PAF 0.4 μg
  lowest protective amount of enzyme against NEC: 2040 units
[1]; less than 2,000 units of the enzyme
  NEC development at low doses: developed NEC
PAF mediated lung injury; 2000 units 15 minutes before 400 ng/kg PAF infusion
  BAL fluid protein concentration: 1.13 ± 0.25 mg/mL
PAF mediated lung injury; 2000 units pretreatment
  protection against PAF mediated lung injury: completely protect
